# Reference: paper PMC3537844 (Nature structural & molecular biology, 2012)
# B1: Methylated MxiAC (318-686) (domain or fragment, Shigella flexneri, UniProt P0A1I5 318-686, looked up)
# chain: VVEKEKSLSESDSSGYTGTFDIDNSHDSSLAMIENLDAISSETVPLILLFAENKINANDMEGLIERIRSQFFIDYGVRLPTILYRTSNELKVDDIVLLINEVRADSFNIYFDKVCITDENGDIDALGIPVVSTSYNERVISWVDVSYTENLTNIDAKIKSAQDEFYHQLSQALLNNINEIFGIQETKNMLDQFENRYPDLLKEVFRHVTIQRISEVLQRLLGENISVRNLKLIMESLALWAPREKDVITLVEHVRASLSRYICSKIAVSGEIKVVMLSGYIEDAIRKGIRQTSGGSFLNMDIEVSDEVMETLAHALRELRNAKKNFVLLVSVDIRRFVKRLIDNRFKSILVISYAEIDEAYTINVLKTI
# modifications: reductive methylated by dimethylamine borane complex (DMAB) and formaldehyde
# Target: the molecule itself
# Assay: crystal structure
protein,measurement,value
B1,stoichiometry N,9
